Data published in US20200190186A1.

Assays:
[1] = molecular target: mouse TIM3 (mouse) (UniProt Q8VIM0); assay: binding to activated mouse T cells; method not stated
[2] = molecular target: mouse TIM3 (mouse) (UniProt Q8VIM0); assay: binding to activated mouse T cells, compared with TIM3.18 on human TIM-3

Sequence of mouse TIM3 (mouse) (Q8VIM0 20-281): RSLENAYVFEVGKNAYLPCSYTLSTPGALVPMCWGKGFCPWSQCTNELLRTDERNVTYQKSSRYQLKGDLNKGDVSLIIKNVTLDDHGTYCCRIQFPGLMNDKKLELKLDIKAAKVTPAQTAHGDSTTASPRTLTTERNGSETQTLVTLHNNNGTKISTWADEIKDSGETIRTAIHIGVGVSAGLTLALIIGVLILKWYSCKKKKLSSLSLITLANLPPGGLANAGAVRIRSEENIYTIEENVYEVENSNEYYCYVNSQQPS

## RMT3-23, rat anti-mouse TIM-3 commercial antibody (Bio-X-Cell)
[1]
  EC50: 1.7 nM
[2]
  fold weaker EC50 than TIM3.18 on human TIM-3: 17 fold
